Experimental data reported in FireProtDB (doi:10.1016/0022-2836(92)90563-y).

B1: Ribonuclease, P00648 (parent)
chain: MMKMEGIALKKRLSWISVCLLVLVSAAGMLFSTAAKTETSSHKAHTEAQVINTFDGVADYLQTYHKLPDNYITKSEAQALGWVASKGNLADVAPGKSIGGDIFSNREGKLPGKSGRTWREADINYTSGFRNSDRILYSSDWLIYKTTDHYQTFTKIR

Variants of: B1
Details: Bacillus amyloliquefaciens; pH 6.3; 25 °C; Urea; Fluorescence; MES 50 micro M; reversible: yes; structure 1BNI; whole UniProt chain shown

Row | Variant | ddG of mutation (higher = less stable)
1 | MMKMEGIALKKRLSWISVCLLVLVSAAGMLFSTAAKTETSSHKAHTEAQVINTFDGVADYLQTYHKLPDNYITKSEAQALGWVASKGNLADVAPGKSIGGDIFSNREGKLPGKSGRTWREADINYTSGFRNSDRILYSADWLIYKTTDHYQTFTKIR [S139A] | 2.8 kcal/mol
2 | MMKMEGIALKKRLSWISVCLLVLVSAAGMLFSTAAKTETSSHKAHTEAQVIATFDGVADYLQTYHKLPDNYITKSEAQALGWVASKGNLADVAPGKSIGGDIFSNREGKLPGKSGRTWREADINYTSGFRNSDRILYSSDWLIYKTTDHYQTFTKIR [N52A] | 1.85 kcal/mol
3 | MMKMEGIALKKRLSWISVCLLVLVSAAGMLFSTAAKTETSSHKAHTEAQVINTFDGVADYLQTYHKLPDNYITKSEAQALGWVASKGNLADVAPGKSIGGDIFSNREGKLPGKSGRTWREADIAYTSGFRNSDRILYSSDWLIYKTTDHYQTFTKIR [N124A] | 1.66 kcal/mol
4 | MMKMEGIALKKRLSWISVCLLVLVSAAGMLFSTAAKTETSSHKAHTEAQVINTFDGVADALQTYHKLPDNYITKSEAQALGWVASKGNLADVAPGKSIGGDIFSNREGKLPGKSGRTWREADINYTSGFRNSDRILYSSDWLIYKTTDHYQTFTKIR [Y60A] | 3.71 kcal/mol
5 | MMKMEGIALKKRLSWISVCLLVLVSAAGMLFSTAAKTETSSHKAHTEAQVINAFDGVADYLQTYHKLPDNYITKSEAQALGWVASKGNLADVAPGKSIGGDIFSNREGKLPGKSGRTWREADINYTSGFRNSDRILYSSDWLIYKTTDHYQTFTKIR [T53A] | 2.15 kcal/mol
6 | MMKMEGIALKKRLSWISVCLLVLVSAAGMLFSTAAKTETSSHKAHTEAQVINGFDGVADYLQTYHKLPDNYITKSEAQALGWVASKGNLADVAPGKSIGGDIFSNREGKLPGKSGRTWREADINYTSGFRNSDRILYSSDWLIYKTTDHYQTFTKIR [T53G] | 1.21 kcal/mol
7 | MMKMEGIALKKRLSWISVCLLVLVSAAGMLFSTAAKTETSSHKAHTEAQVINTFDGVADYLQTYHKLPDNYIAKSEAQALGWVASKGNLADVAPGKSIGGDIFSNREGKLPGKSGRTWREADINYTSGFRNSDRILYSSDWLIYKTTDHYQTFTKIR [T73A] | 1.93 kcal/mol
8 | MMKMEGIALKKRLSWISVCLLVLVSAAGMLFSTAAKTETSSHKAHTEAQVINTFDGVADYLQTYHKLPDNYIGKSEAQALGWVASKGNLADVAPGKSIGGDIFSNREGKLPGKSGRTWREADINYTSGFRNSDRILYSSDWLIYKTTDHYQTFTKIR [T73G] | 1.42 kcal/mol
9 | MMKMEGIALKKRLSWISVCLLVLVSAAGMLFSTAAKTETSSHKAHTEAQVINTFDGVADYLQRYHKLPDNYITKSEAQALGWVASKGNLADVAPGKSIGGDIFSNREGKLPGKSGRTWREADINYTSGFRNSDRILYSSDWLIYKTTDHYQTFTKIR [T63R] | -0.47 kcal/mol
10 | MMKMEGIALKKRLSWISVCLLVLVSAAGMLFSTAAKTETSSHKAHTEAQVINTFDGVADYLQSYHKLPDNYITKSEAQALGWVASKGNLADVAPGKSIGGDIFSNREGKLPGKSGRTWREADINYTSGFRNSDRILYSSDWLIYKTTDHYQTFTKIR [T63S] | 1.68 kcal/mol
11 | MMKMEGIALKKRLSWISVCLLVLVSAAGMLFSTAAKTETSSHKAHTEAQVINTFDGVADYLQTYHKLPDNYITKSEAQAQGWVASKGNLADVAPGKSIGGDIFSNREGKLPGKSGRTWREADINYTSGFRNSDRILYSSDWLIYKTTDHYQTFTKIR [L80Q] | 1.3 kcal/mol
12 | MMKMEGIALKKRLSWISVCLLVLVSAAGMLFSTAAKTETSSHKAHTEAQVINTFDGVADYLQTYHKLPDNYITKSEAQALGWVASKGNLADVAPGKSIGGDVFSNREGKLPGKSGRTWREADINYTSGFRNSDRILYSSDWLIYKTTDHYQTFTKIR [I102V] | 0.3 kcal/mol
13 | MMKMEGIALKKRLSWISVCLLVLVSAAGMLFSTAAKTETSSHKAHTEAQVINTFDGVADYLQTYHKLPDNYITKSGAQALGWVASKGNLADVAPGKSIGGDIFSNREGKLPGKSGRTWREADINYTSGFRNSDRILYSSDWLIYKTTDHYQTFTKIR [E76G] | 1.76 kcal/mol
14 | MMKMEGIALKKRLSWISVCLLVLVSAAGMLFSTAAKTETSSHKAHTEAQVVNTFDGVADYLQTYHKLPDNYITKSEAQALGWVASKGNLADVAPGKSIGGDIFSNREGKLPGKSGRTWREADINYTSGFRNSDRILYSSDWLIYKTTDHYQTFTKIR [I51V] | 0.67 kcal/mol
15 | MMKMEGIALKKRLSWISVCLLVLVSAAGMLFSTAAKTETSSHKAHTEAQVINTFDGVADYLQTYHKLPDNYITKSEAQALGWVASKGNLADVAPGKSIGGDIFSNREGRLPGKSGRTWREADINYTSGFRNSDRILYSSDWLIYKTTDHYQTFTKIR [K109R] | 0.43 kcal/mol
16 | MMKMEGIALKKRLSWISVCLLVLVSAAGMLFSTAAKTETSSHKAHTEAQVINTFDGVADYLQTYHKLPDNYITKSEAQALGWVASKGNLADVAPGKSIGGDIFSNREGKLPGKSGRTWREADINFTSGFRNSDRILYSSDWLIYKTTDHYQTFTKIR [Y125F] | 1.35 kcal/mol
17 | MMKMEGIALKKRLSWISVCLLVLVSAAGMLFSTAAKTETSSHKAHTEAQVINTFDGVADYLQTYHKLPDNYITKSEAQALGWVASKGNLADVAPGKSIGGDIFSNREGKLPGKSGRTWREADINYTSGFRNSDRVLYSSDWLIYKTTDHYQTFTKIR [I135V] | 1.34 kcal/mol
18 | MMKMEGIALKKRLSWISVCLLVLVSAAGMLFSTAAKTETSSHKAHTEAQVINTFDGVADYLQTYHKLPDNYVTKSEAQALGWVASKGNLADVAPGKSIGGDIFSNREGKLPGKSGRTWREADINYTSGFRNSDRILYSSDWLIYKTTDHYQTFTKIR [I72V] | 1.12 kcal/mol
